Experimental data as given in the DeepSol protein solubility set.

Test: soluble on expression in E. coli; label from the status in PepcDB or PDB records

Sequence | soluble on expression in E. coli
MNNSEQLIALKESETAFLKYFNKADYELVDFSVVEKLDWKQLNHEDLQQMGERNFWQHEHQIYALRNDFTDQLLRYYSMYPTAATKVAYTGLIIRNNEAAVQVGLENYAPSLANVQQSLKLFIQFIQQQLRDNVHFVVLGHYQLLDALLDKSLQTPDILSMIEERNLSGLVTYLSTEHPIVQILKENTQQQLNVLEHYIPNDHPALVELKIWERWLHTQGYKDIHLDITAQPPRSYYTGLFIQCHFAENESRVLTGGYYKGSIEGFGLGLTL | soluble
MGSDKIHHHHHHMATIEILGFPHAYELTAPTSYPDALVFIHGWLNSRGYWQPVTSRLSVDFQCLSYDLRGFGESQSQLETDFHRGSSSASLSAQSLQEINLSFDSLYTPAAYAQDLAALLEQLNITSAWLVGHSLGGTIALWAAAQIPQRIKGVICINAGGGIYLKEAFEQFRMAGQRFLQVRPRWLSQLPLIDLLFTRASVSRPLDRQWARQRVIDFVVADPEAALGALLDSTTEDEVNRLPKLVSQLKQPVYFLAGTDDKVMEPKYVRHLASFHPLFQYCGDNVIEIPDCGHLAMLEQPDAVASHIKSLVIGHG | not soluble
KTLPRDEKEKQIADSKERLKSDTQKVKDAKNADAIKKAFEEGKVNIPQAHIPGDLNKDKEKLLAELKQKADDTEKAIDVDKT | not soluble
NSGQSGAESDIRRKSEEIAAHSNEPSAEKPKEEKKWYDRIGIRGYTQFRYSSTVSGDKDAVSYWPDKSVGEDGSFLIRRARLVIFGDINDHLSLYIQPDFASTPSGSSTGHFAQLRDAYADIHFDKNKEFRVRVGQSKIPYSFENLQSSQNRLALDRNDAMNSCCRDERDIGAFFYWAPTHIRDRFKEVMAKNLKGSGDYGMFAFGIYNGQGANRLEGNNGVHMVTRFTYPHQFSNGQILEAGIQALRGRFVPSTGPAGGFTPVMDAPEKGFKDERVGVHAVLYPQPFGLQAEWNWGRGPQLNDGQTMLTESSLNGGYVLATYKIDGLRWGTLFPFVKWQHFKGGQKFERNAPRNHVNDLEFGLEWQVMKEIELTAVYHMMNRTNVASAPYERYKADVLRFQLQWNY | not soluble
MKHGILVAYKPKGPTSHDVVDEVRKKLKTRKVGHGGTLDPFACGVLIIGVNQGTRILEFYKDLKKVFWVKMRLGLITETFDITGEVVEERECNVTEEEIREAIFSFVGEYDQVPPAYSAKKYKGERLYKLAREGKIINLPPKRVKIFKIWDVNIEGRDVSFRVEVSPGTYIRSLCMDIGYKLGCGATAVELVRESVGPHTIEESLNVFEAAPEEIENRIIPLEKCLEWLPRVVVHQESTKMILNGSQIHLEMLKEWDGFKKGEVVRVFNEEGRLLALAEAERNSSFLETLRKHERQERVLTLRKVFQTR | soluble
METYLEIETLIKRIFNSFRHEVEAVLDKRLSGSEYRVLSLISSGLTKTSDLAKTLDVSASHITAITDTLVEEKLITRHRSEVDRRIIELKLTSNAEEFVKEIDKKKKEMIVKRFAVFSEYEQAEFRKLLKKLADGSQSNK | not soluble
MPELPEVETVRRELEKRIVGQKIISIEATYPRMVLTGFEQLKKELTGKTIQGISRRGKYLIFEIGDDFRLISHLRMEGKYRLATLDAPREKHDHLTMKFADGQLIYADVRKFGTWELISTDQVLPYFLKKKIGPEPTYEDFDEKLFREKLRKSTKKIKPYLLEQTLVAGLGNIYVDEVLWLAKIHPEKETNQLIESSIHLLHDSIIEILQKAIKLGGSSIRTYSALGSTGKMQNELQVYGKTGEKCSRCGAEIQKIKVAGRGTHFCPVCQQK | soluble
AQVDLLNVKGEKVGTLEISDFVFNIDPNYDVMWRYVDMQLSNRRAGTASTKTRGEVSGGGRKPWPQKHTGRARHGSIRSPIWRHGGVVHGPKPRDWSKKLNKKMKKLALRSALSVKYRENKLLVLDDLKLERPKTKSLKEILQNLQLSDKKTLIVLPWKEEGYMNVKLSGRNLPDVKVIIADNPNNSKNGEKAVRIDGLNVFDMLKYDYLVLTRDMVSKIEEVLG | soluble
MSLADKAFHTRLINMRRDLHEHPELSFQEVETTKKIRRWLEEEQIEILDVPQLKTGVIAEIKGREDGPVIAIRADIDALPIQEQTNLPFASKVDGTMHACGHDFHTASIIGTAMLLNQRRAELKGTVRFIFQPAEEIAAGARKVLEAGVLNGVSAIFGMHNKPDLPVGTIGVKEGPLMASVDRFEIVIKGKGGHAGIPNNSIDPIAAAGQIISGLQSVVSRNISSLQNAVVSITRVQAGTSWNVIPDQAEMEGTVRTFQKEARQAVPEHMRRVAEGIAAGYGAQAEFKWFPYLPSVQNDGTFLNAASEAAARLGYQTVHAEQSPGGEDFALYQEKIPGFFVWMGTNGTEEWHHPAFTLDEEALTVASQYFAELAVIVLETIKEGGSHHHHHH | soluble
MEKKITLIPPPEFVQYVGGHFEEVGKEFMQYFIEIGNLKSNETVLDVGCGIGRMAVPLMNYLSDDGTYYGFDLFNKGITWCKNNISTRRNNFHFEHVDIYNQFYNPDGKEDASQYKFPYEDESFDFIFLTSVFTHLLPKELEHYVREIARVLKKDGRCFITFFLINPESSYYLNAGLSPLGFYHQIDNCYVLNKDIPNFAVAYPEEDIRTLLNKYGLEMQTPPHYGSWCGRTEHTSYQDIILAQKLEHHHHHH | not soluble
ALTEEILNAQPNPICVKDRNLHYIAVNKAFSAIHDLAPDAMLGRSASDLVETELAEHFERSDRHVLETGTPYSEAEHIVRADGSDLWVVTRKYRVGLPDRHFVVTCMNDVT | not soluble
MKTLIARHKAGEHIGICSVCSAHPLVIEAALAFDRNSTRKVLIEATSNQVNQFGGYTGMTPADFREFVFTIADKVGFARERIILGGDHLGPNCWQQENADAAMEKSVELVKAYVRAGFSKIHLDASMSCAGDTIPLAPETVAERAAVLCFAAESVATDCQREQLSYVIGTEVPVPGGEASAIQSVHITHVEDAANTLRTHQKAFIARGLTEALTRVIAIVVQPGVEFDHSNIIHYQPQEAQALAQWIENTRMVYEAHSTDYQTRTAYWELVRDHFAILKVGPALTFALREAIFALAQIEQELIAPENRSGCLAVIEEVMLDEPQYWKKYYRTGFNDSLLDIRYSLSDRIRYYWPHSRIKNSVETMMVNLQGVDIPLGMISQYLPKQFERIQSGELSAMPHQLIMNKIYDVLRAYRYGCAE | not soluble
ATDVIAQRKAILKQMGEATKPIAAMLKGEAKWDQAVVQKSLAAIADDSKKLPALFPADSKTGGDTAALPKIFEDKAKFDDLFAKLAAAATAAQGTIKDEASLKANIGGVLGNCKSCHDDFRAKKS | soluble
MGKYFGTDGVRGEANVELTPELAFKLGRFGGYVLSQHETERPKVFVARDTRISGEMLESALIAGLLSVGIEVYKLGVLATPGVSYLVRTEKASAGVMISASHNPALDNGIKFFGNDGFKLADDQELEIEALLDAPEDTLPRPSAEGLGTLVDYPEGLRKYEKFLVTTGTDLSGMTVALDTANGAASVSARDVFLDLNAEIAVIGEKPNGLNINDGVGSTRPEQLQELVKETGADLGLAFDGDSDRLIAVDETGEIVDGDRIMFIIGKYLSEKGLLAHNTIVTTVMSNLGFHKALDKQGINKAITAVGDRYVVEEMRSSGYNLGGEQSGHVIIMDYNTTGDGQLTAIQLAKVMKETGKSLSELAAEVTIYPQKLVNIRVENSMKERAMEVPAIANIIAKMEDEMAGNGRILVRPSGTEPLLRVMAEAPTDAEVDYYVDTIADVVRTEIGCDN | not soluble
MIMRWGEKRYHSLDYELKQMFKEKVYKIALNGGMTCPNRDGHVGTGGCIFCSSQGSGDFAGSARLSIAEQIRQGKADISSKRPVHSYIAYFQAFTNTYAPVETLRALYMEAIADPEVKILSIATRPDCLGADVLALLDEINQIKPVWVELGLQTIHPETSAYIRRGYELSVFEQAVKELRAIGITVIVHTILYLPGETKDDMLDTIHYLNHMDIQGIKLQLLHVLTHTDLAADYEKHPFYIPDMQDYIQFLGTCIAHLNPEIVIHRLTGDGPKDLLIAPLWTSNKRTVLNQLHSHLKEQDIWQGKEYYV | not soluble
MQTLGFRRPNQVREAVYRHLKDLLLSGRFSPGERLSEPLLAQELGVSRTPVREALMRLAEEGLVELVPGKGARVRVFAPEEVEEVYGVRALLEGEAAREAALRATPWELAELERLLQAIDEAPREDYPEQMRRDLEFHRALVRLSGNRTLYRLYEDLLATLALARSALPTLSQDEATRREHRAILEALLRRDPEEARRAVEAHVFRFRDLVVGRLREEGG | soluble
MGSDKIHHHHHHMMVEESLQLQNELLNKLVQGGGLKELVDSAAHFVQREVVIANTSNRVLESTFSEGFSQGEFFAVLPLQPPVPGRVQLQAGEKKAEALVVELSHDAKRLGFLFICDPGADEDNRLKVLIHQARNVFVLELQKKAELLENSRNYQDAFLFDLLYGNIEDNADIIARGKLWGWDLSLPHVVTAFELEDYESYSQDHYLVTTLHDIIQSVAQSLDKTVILMEKNEEVVLALPVEARKRRDFKAYLNMIINQVLAQAEERLAPRVIRVGVGRRYEQPSELFRSYQEAKVAVKLSALLKDKGPIVYFRELGVERILYSHDKQELLEFYREILAELEAQDKQKNELIETLENYLVYHCDLKATADALFLHPNSLRYRLKRIEEILDLDLEDFDTRVSLVIAFKIKHLIHSKERL | not soluble
MLATPFWYNAALKVLKPVYRWRIKKRAENEMRYQQECRERFGPFQQPQNRHALWFHAVSVGETNAAQPLIEYYLKLGHPVLVTNTTKTGQARAKSLFLKSPYLELFQAVYLPVDQIFLLKQFFELYQPKLLALVETELWPNLIDQAQHYGVPTFLINARLSEKSAQGYARVSALSNAMLSRLTGLLAQDQSTQQRFIGLGLAREKAQVVGNIKFDIDVPLLFVLEHHHHHH | not soluble
MSLNELRKRVEIERSLHEAEFKALSYQINPHFLFNVLNTIGRLAFLEDAQRTETMVHDFSDMMRYLLRKNSHGLITLRNEINYVNNYMSIQKVRMRDRFDYLCDIPEKYLDVVCPFLILQPLVENFFNYVVEPRDSNSHLLIRATDDGLNVIIEVTDNGDGIAPDTINRILSGDQKLQKGSIGINNIKNRLKLLFGESYGLEIMSPNKPRMGTTIKLRFPMQEAEGHHHHHH | soluble
MGSDKIHHHHHHMPDTRITEDFLGFGLGLRTDHFEYILQHQPDIDWFEVLSENYLVAGGKPRYYLEAIAEQYPVVMHGVSMSIGSSDPLDMDYLKALKKLSNDIQPKWISDHICWTSIHGVNSHDLLPLPYTEETVNHVAQRVRQVQDVLGRRILLENVSSYLSYQDSTMDEWDFLSQVAEAADCLVLLDINNIYVSARNHHFNPLDYLKKIDPRRVQQFHLAGHSDFGDYVIDTHDHDVPPSVWTLYQAALERFGAVSTMIERDANIPEFPALYNELLEAKHIAQLTLPDDPALARSQFGSRSLDDLSKFINTNNASSQKVRA | not soluble
MGSDKIHHHHHHMNEIAGIPYVEASFDKNGQGPEEEVALPAGVTDLIIMSHGWNNNKSKAEDLYNGFFASFAAAAQPNDLSARKLVILGVFWPSREYDTSVAVSGTPATGGGGAALGGGNGGSIKRLEEKLDDMKEIFTEAEQKKLLDEAKALLPDLEEKASVRDLFVNKMRSLLDPSAAGKEDASNIFFKDGGNELMKNLKAEEEDLGEDVAGGGAALPLGVSTPARAEGGAAGLVEILSGFKAAAINLLNYTTYYEMKTRSGTVGKNGVAPLIDKLASQVERIHLIGHSFGCRVVTSAALGSKTDKIKSMILLQAAFSQNGFSKIEQGFYRAIVDNHRVKGPVLITHTPNDRAVGLAYPLASRISGDKTMAFGDKDDLFGAMGRNGAQKMEQGEAVEGKLLSVGGPYAFKANTYFNLEASDFIKNHNDIKGKEVGYVVRKVVATAGMG | not soluble
MSLSVEQANLILNHLPMEITFVNKEDIFQYYNDNTPADEMIFKRTPSQVGRNVELCHPPKYLDKVKTIMKGLREGSKDKYEMWFKSESRGKFVHITYAAVHDEDGEFQGVLEYVQDIQPYREIDTDYFRGLEEGHHHHHH | soluble
